Columns and labels:
[1] = target: T1, CC1H, major antigenic region of PLA2R (human, UniProt Q13018 21-367); assay: indirect ELISA, CC1h coated at 2 ug/mL, anti-human IgG Fc HRP
T1 construct: Secreted from CHO-S cells, purified on Ni column; also called CCIh
Description: (§1) 30 μL of CC1h (2 μg/mL, diluted with 1*PBS) was added to the reaction wells of the ELISA plate, and the plate was sealed and incubated at 4° C. overnight. The plate was washed with PBST for 3 times, and the liquid in the wells was discarded. 5% PBSM was added to block the ELISA plate at room temperature for 2 hours. The plate was washed with PBST for 3 times by adding 30 μL of Abs (diluted with 1*PBS) to each well of the ELISA plate, and the plate was incubated at room temperature for 60 min. The plate was washed with PBST for 3 times, 30 μL of anti-human IgG Fc HRP (diluted with 1% PBSM at a ratio of 1:8000) was added to each well, and incubated at room temperature for 60 min. TMB was added and the reaction was stopped with 2M blocking solution and the OD value was detected at 450 nm. Recombinant Ipilimumab (Sanyou Biopharmaceuticals Co., Ltd.) was used as a negative control. The test results were illustrated in Table 2 as well as FIG. 4 and FIG. 5.

CC1H-Biotin = target: T2, CC1H-Biotin (human, UniProt Q13018 21-367, biotin by EZ-Link Sulfo-NHS-LC-Biotin, 1.80 mol Biotin/mol protein; sites not given); assay: BLI (Octet N1), CC1H-Biotin on SA sensor, antibody 76.6-8.5 nM
T2 construct: also called biotin-labeled CC1H
Description: Sartorius Octet® N1 molecular interaction instrument was used, the SA sensor (Sartorius, Octet® Streptavidin (SA) Biosensor, 18-5019) was selected.
The sensor was immersed in a PBSTB buffer (0.02% Tween-20 and 0.1% BSA were added in the PBS buffer) to be pre-wetted for 10 min or longer, and loaded onto the molecular interaction instrument.
The association constant (Ka), dissociation constant (Kd), and affinity constant (KD) were calculated and illustrated in Table 5 for details.

[2] = target: T1, CC1H, major antigenic region of PLA2R; assay: indirect ELISA, CC1h coated at 2 µg/mL, anti-human IgG Fc HRP, ΔOD450
Description: The human anti-human PLA2R antibody after phage screening and expression in Example 2 was measured in terms of the ability of binding to CC1h using the indirect ELISA method.
as §1

EC50 [1] [ng/mL]	Kd (CC1H-Biotin) [pM]	koff (CC1H-Biotin) [s⁻¹]	kon (CC1H-Biotin) [M⁻¹ s⁻¹]	binding result [2]	Binder
–	–	–	–	no binding	B44 (antibody, human IgG4, kappa, V domains shown, also called P59386) VH: QVQLVQSGAEVKKPGASVKVSCKASGYTFTSYYMHWVRQAPGQGLEWMGIINPSGGSTSYAQKFQGRVTMTRDTSTSTVYMELSSLRSEDTAVYYCARGVSRRGAFDIWGQGTMVTVSS VL: DVVMTQSPLSLPVTPGEPASISCRSSQSLLHRSGYNYLDWYVQKPGQSPQLLIYLGSIRAVGVPDRFSGSASGTDFTLRISRVEAEDVGIYYCMQALQTPPAFGGGTKVEIKR
–	–	–	–	no binding	B145 (antibody, human IgG4, kappa, V domains shown, also called P59396) VH: QLQLQESGPGLVKPSQTLSLTCTVSGGSISSGGYYWSWIRQHPGKGLEWIGYIYYSGSTYYNPSLKSRVTISVDTSKNQFSLKLSSVTAADTAVYYCARGKRDGYNYYFDYWGQGTLVTVSS VL: DIVMTQSPSSLSASVGDRVTITCQASQDISNYLNWYQQKPGKAPKLLIYDASSLESGVPSKFSGSRSGTDFTLTISSLQPEDSATYYCQQYRSYPITFGGGTKVEIKR

Further lines, the binder ahead of its results:

Binder	EC50 [1] [ng/mL]	Kd (CC1H-Biotin) [pM]	koff (CC1H-Biotin) [s⁻¹]	kon (CC1H-Biotin) [M⁻¹ s⁻¹]	binding result [2]
B156 (IgG4SP) (antibody, IgG4SP (S228P in the hinge, already in the heavy chain entry); also called B156SP; P62304) heavy: not shown light: DIQLTQSPSSLSASIGDRVTITCRASQGISSFLAWYQQKPGKAPQLLIYAASTLQSGVPSRFSGSGSGTEFTLTISSLQPEDFATYYCQQFKIYPLTFGGGTKVEVKRTVAAPSVFIFPPSDEQLKSGTASVVCLLNNFYPREAKVQWKVDNALQSGNSQESVTEQDSKDSTYSLSSTLTLSKADYEKHKVYACEVTHQGLSSPVTKSFNRGEC	8.12	< 1	< 1e-07	654000	–
A22 (antibody, human IgG4, kappa, V domains shown, also called P59370) VH: EVQLVESGAEVKKPGSSVKVSCKASGGTFSSYAISWVRQAPGQGLEWMGGIIPIFGTANYAQKFQGRVTITADESTSTAYMELSSLRSEDTAVYYCAFTSGSYYYFDYWGQGTLVTVSS VL: not shown	–	–	–	–	no binding

— US20250340652A1 (CHENGDU DI AO PHARMACEUTICAL GROUP, published 2025)
